# Assay results reported in the supplement of paper PMC11780869.
# Tested on: Bacillus subtilis
# Assay: cleaved RNA product abundance (RNA/gDNA barcode ratio) relative to median wild-type variant (ratio to wild type); higher = more accumulation of the downstream cleavage product
# Summary of the method: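 B. subtilis strains with chromosomally integrated reporter mRNAs (truncated aprE or tetM) holding barcoded, mutagenized RNase Y cleavage-site windows grew in LB at 37°C from OD600 0.0003 to 0.3. Cleaved product abundance is each construct's RNA:gDNA barcode ratio, scaled to the median construct with the unmutated site. It came from sequencing barcodes of gel-selected, reverse-transcribed cleaved RNA and of genomic DNA.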
# [1] = experiment (reporter, strain, medium): exp 8a: truncated aprE reporter, strain BJT201 with 2% xylose (RNase J1 expressed), cleavage site: glnRA (positions -5 to +31 mutated)
# [2] = experiment (reporter, strain, medium): exp 2b: truncated aprE reporter, strain BJT200, cleavage site: cggR-gapA (positions -7 to +36 mutated)
# [3] = experiment (reporter, strain, medium): exp 4a: truncated aprE reporter, strain BJT201 with 2% xylose (RNase J1 expressed), cleavage site: cggR-gapA (positions -7 to +36 mutated)
Sequence,cleaved RNA product abundance [1],cleaved RNA product abundance [3],other results
CGACATGTCCCGCTTCTTTCATTAAACCGTTAGCAACTGTTTAGCTATATACATTTACCTTTTAAGAGGAGGAAT,0.248,–,–
CGACATGTCCCGCTTCTTTCATTAATCCGTTAGCAACTGTTTTGCTATATAAATTTACATTTTAAGAGGAGGAAT,1.83,–,–
ACAGACGAAGGAGCCGCAAAGAAGTTATTAAGTGATGATTAATCCCTCAATATAAATATCTCTCACTTATTTAAA,–,–,cleaved RNA product abundance [2]: 0.112
ACAGACGAAGGAGCCGCAAAGAGGTTATTTAGGGATGAATAATCCCTCAATATAAATATCTCTCACTTATTTAAA,–,0.527,–
ACAGACGAAGGAGCCGCAAAGAAGTTCTTAAGGGATGAATAATCTCTCAATATAAATATCTCTCACTTATTTAAA,–,0.199,–
ACAGACGAAGGAGCCGCAAAGGACTTATTAAGGGATGAATAATCCCTCAATATAAATATCTCTCACTTATTTAAA,–,0.173,–
CGACATGTCCCGCTTCTTTCATTAATCCGTTAGCAACAGTTTTACTATATACATTTACCTTTTAAGAGGAGGAAT,0.561,–,–
ACAGACGAAGGAGCCGCAAAGAAGTTATTAAGGGATTAATAACCCCTCAATATAAATATCTCTCACTTATTTAAA,–,0.72,cleaved RNA product abundance [2]: 0.749
CGACATGTCCCGCTTCTTTCATTAAACCGTTAGCAACTGTTTAACTATATACATTTACCTTTTAAGAGGAGGAAT,0.444,–,–
CGACATGTCCCGCTTCTTTCATTAATCCGTTAGAAACTGCTTTGCTATATACATTTACCTTTTAAGAGGAGGAAT,0.146,–,–
CGACATGTCCCGCTTCTTTCATTAATCCGTTTGCAACTGTTTAGCTATATACATTTACCTTTTAAGAGGAGGAAT,0.517,–,–
ACAGACGAAGGAGCCGCAAAGAAGTTATTAAGGGATTAATAATCCCTCAATTTAAATATCTCTCACTTATTTAAA,–,0.176,–
ACAGACGAAGGAGCCGCACAGAAGTTATTAAGGGATTAATAATCACTCAATATAAATATCTCTCACTTATTTAAA,–,0.293,–
ACAGACGAAGGAGCCGCAAAGAAGTTATTAAGGAATGAATAATCCCTCAATATAAATAACTCTCACTTATTTAAA,–,0.21,–
ACAGACGAAGGAGCCGCAAATAAGTTATTAAGGGACGAATAATCCCTCAATATAAATATCTCTCACTTATTTAAA,–,0.802,cleaved RNA product abundance [2]: 0.65
CGACATGTCCCGCTTCTTTCATTAGTCCGTTAGCAACTGTTTTACTATATACATTTACCTTTTAAGAGGAGGAAT,0.548,–,–
ACAGACGAAGGAGCCGCAAAGAAATTATTAGGGGATGAATAATCCCTCAATATAAATATCTCTCACTTATTTAAA,–,0.586,–
ACAGACGAAGGAGCCGCAAAGAAGTTATTAAGGGATAAATAATCCCTCAATATAGATATCTCTCACTTATTTAAA,–,1.02,cleaved RNA product abundance [2]: 0.638
ACAGACGAAGGAGCCGCAAAGAAGTTATTAAGGGATGAAAAATCCCTCAATAGAAATATCTCTCACTTATTTAAA,–,0.192,–
ACAGACGAAGGAGCCGCAAAGTAGTTATTAAGGGATGAATAATCCCTCCATATAAATATCTCTCACTTATTTAAA,–,0.487,cleaved RNA product abundance [2]: 0.299
CGACATGTCCCGCTTCTTTCATTAATCCGTTATCAACTGTTTTGCTATATACATTTACCATTTAAGAGGAGGAAT,0.269,–,–
ACAGACGAAGGAGCCGCAAAGAAGTTATTAAAGGATGACTAATCCCTCAATATAAATATCTCTCACTTATTTAAA,–,0.133,cleaved RNA product abundance [2]: 0.0975
CGACATGTCCCGCTTCTTTCATTATTCCGTTAGCAACTGTTTTGCTGTATACATTTACCTTTTAAGAGGAGGAAT,0.298,–,–
ACAGACGAAGGAGCCGCAAAGAAGTTATAAAGGGATTAATAATCCCTCAATATAAATATCTCTCACTTATTTAAA,–,0.362,cleaved RNA product abundance [2]: 0.333
ACAGACGAAGGAGCCGCAAAGAAGTTATTAAGGGACGAATAATCCCTCCATATAAATATCTCTCACTTATTTAAA,–,0.255,–
ACAGACGAAGGAGCCGCAATGAAGTTATTAAGGGATGAATAATCCCTAAATATAAATATCTCTCACTTATTTAAA,–,0.792,–
CGACATGTCCCGCTTCTTTCATTAATCCATTAGCAACTGTTTTGCTATATAAATTTACCTTTTAAGAGGAGGAAT,0.754,–,–
CGACATGTCCCGCTTCTTTCATTATTCCGTTAGCAGCTGTTTTGCTATATACATTTACCTTTTAAGAGGAGGAAT,1.16,–,–

Sequence,cleaved RNA product abundance [1],cleaved RNA product abundance [3],other results
CGACATGTCCCGCTTCTTTCATTACTCCGTTAGCAACTGTTTTGCTATAGACATTTACCTTTTAAGAGGAGGAAT,0.738,–,–
ACAGACGAAGGAGCCGCAAAGAAGTTATTAATGGATGAATAATCACTTAATATAAATATCTCTCACTTATTTAAA,–,0.194,–
CGACATGTCCCGCTTCTTTCATTACTTCGTTAGCAACTGTTTTGCTATATACATTTACCTTTTAAGAGGAGGAAT,1.57,–,–
ACAGACGAAGGAGCCGCAAAGAATTTATTAAGGGATGAATAATCCCTCAATATAAATATTTCTCACTTATTTAAA,–,0.259,–
CGACATGTCCCGCTTCTTTCATTAATCCGTTAGCAACTGTTTTGCGATATACATTTACTTTTTAAGAGGAGGAAT,0.55,–,–
ACAGACGAAGGAGCCGCAAAGAAGCTATTAAGGGATGAATAATCCCTAAATATAAATATCTCTCACTTATTTAAA,–,0.407,cleaved RNA product abundance [2]: 0.346
CGACATGTCCCGCTTCTTTCATTAATCAGTAAGCAACTGTTTTGCTATATACATTTACCTTTTAAGAGGAGGAAT,0.489,–,–
ACAGACGAAGGAGCCGCAAAGAAGTTATTAAGGGATGAACAATCCCTCACTATAAATATCTCTCACTTATTTAAA,–,0.331,–
CGACATGTCCCGCTTCTTTCATTAATCCGTTAGCAACTATTTTGCTATCTACATTTACCTTTTAAGAGGAGGAAT,0.108,–,–
ACAGACGAAGGAGCCGCTAAGAAGTTACTAAGGGATGAATAATCCCTCAATATAAATATCTCTCACTTATTTAAA,–,–,cleaved RNA product abundance [2]: 0.186
ACAGACGAAGGAGCCGCAGAGAAGTTATTAAGGGATGAATAATCCCTCAATATAAATATCTCTCACTTATTTAAA,–,0.799,"cleaved RNA product abundance [2]: 0.839; cleaved RNA product abundance (experiment (reporter, strain, medium): exp 6: tetM reporter, strain 168, cleavage site: cggR-gapA (positions -7 to +36 mutated)): 0.208"
ACAGACGAAGGAGCCGCAAAGAAATTATTAAGGGATGAATAATCCCTCTATATAAATATCTCTCACTTATTTAAA,–,0.319,cleaved RNA product abundance [2]: 0.418
ACAGACGAAGGAGCCGCAAAGTAGTTATTAAGGGATGAATAATCACTCAATATAAATATCTCTCACTTATTTAAA,–,0.183,cleaved RNA product abundance [2]: 0.11
ACAGACGAAGGAGCCGCAAAGAAGTTATTATGGGATGAATAATCCCTCAACATAAATATCTCTCACTTATTTAAA,–,0.361,–
CGACATGTCCCGCTTCTTTCATTAATCCGTCAACAACTGTTTTGCTATATACATTTACCTTTTAAGAGGAGGAAT,0.384,–,–
ACAGACGAAGGAGCCGCAAACAAGTTATTAAGGGATGAATAAACCCTCAATATAAATATCTCTCACTTATTTAAA,–,0.38,cleaved RNA product abundance [2]: 0.29
ACAGACGAAGGAGCCGCAAAGAAGTTATTAAGGCATGATTAATCCCTCAATATAAATATCTCTCACTTATTTAAA,–,0.15,cleaved RNA product abundance [2]: 0.125
CGACATGTCCCGCTTCTTTCATTAATCCGTAAGCAACTGTATTGCTATATACATTTACCTTTTAAGAGGAGGAAT,0.367,–,–
ACAGACGAAGGAGCCGCAAAGAAGTTATTAAGGGAGGAATAATCCCTCAAAATAAATATCTCTCACTTATTTAAA,–,0.284,–
ACAGACGAAGGAGCCGCAAAGAAGTTGTTAAGGGATGAATAATCCGTCAATATAAATATCTCTCACTTATTTAAA,–,0.418,–
ACAGACGAAGGAGCCGCAAAGAAGGTCTTAAGGGATGAATAATCCCTCAATATAAATATCTCTCACTTATTTAAA,–,0.115,–
ACAGACGAAGGAGCCGCAAAGAAGTTATTAAGGGATGCATAATCTCTCAATATAAATATCTCTCACTTATTTAAA,–,0.725,–
CGACATGTCCCGCTTCTTTCATTATTCCGTGAGCAACTGTTTTGATATATACATTTACCTTTTAAGAGGAGGAAT,0.52,–,–
ACAGACGAAGGAGCCGCAAAAAAGTTATTAAGGGATGAATTATCCCTCAATATAAATATCTCTCACTTATTTAAA,–,0.808,–
ACAGACGAAGGAGCCGCTAAGAAGTTATTAAGGTATAAATAATCCCTCAATATAAATATCTCTCACTTATTTAAA,–,0.0621,–
CGACATGTCCCGCTTCTTTCATTAATCCGTTAGCAACTGTTTTGATATATAAATTTACCTTTTAAGAGGAGGAAT,0.397,–,–
ACAGACGAAGGAGCCGCAAAGAACTTATTAAGGGATGAATAATCTCTCAATATAAATATCTCTCACTTATTTAAA,–,0.418,–
